Measurements published in patent publication US20190359683A1 (Stanford University, published 2019).

Legend:
[1] = target: T1, recombinant human cardiotrophin-like cytokine factor 1 (CLCF1) (human, UniProt Q9UBD9 28-225, limits assumed); experiment: ELISA: incubated with CLCF1 4 h at room temperature, complex captured on anti-mouse Fc plate, detected with rabbit anti-CLCF1
T1 construct: also called hCLCF1
T1 sequence (looked up): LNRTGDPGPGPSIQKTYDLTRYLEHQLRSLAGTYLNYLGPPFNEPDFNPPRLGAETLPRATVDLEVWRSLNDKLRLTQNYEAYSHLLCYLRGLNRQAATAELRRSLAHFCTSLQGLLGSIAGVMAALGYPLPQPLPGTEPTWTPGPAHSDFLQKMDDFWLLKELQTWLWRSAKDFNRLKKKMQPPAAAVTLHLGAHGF
Text: Then the complexes were captured using microtiter plates coated with anti-his antibody or anti-mouse Fc antibody. […] The same approach was used to characterize binding interaction with the beta receptors.

mouse CLCF1 (mCLCF1) = target: T2, mouse CLCF1 (mCLCF1) (mouse, UniProt Q9QZM3 28-225, limits assumed); experiment: ELISA
T2 construct: also called serum CLCF1 (mouse)
T2 sequence (looked up): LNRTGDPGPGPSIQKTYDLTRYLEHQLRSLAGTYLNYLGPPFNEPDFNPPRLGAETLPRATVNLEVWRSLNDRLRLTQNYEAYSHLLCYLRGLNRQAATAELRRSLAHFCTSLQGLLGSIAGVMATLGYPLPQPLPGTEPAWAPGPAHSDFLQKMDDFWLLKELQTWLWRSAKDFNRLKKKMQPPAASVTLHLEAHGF

[2] = target: T3, recombinantly produced ciliary neurotrophic factor (CNTF) (UniProt P26441 1-200, limits assumed); experiment: ELISA
T3 sequence (looked up): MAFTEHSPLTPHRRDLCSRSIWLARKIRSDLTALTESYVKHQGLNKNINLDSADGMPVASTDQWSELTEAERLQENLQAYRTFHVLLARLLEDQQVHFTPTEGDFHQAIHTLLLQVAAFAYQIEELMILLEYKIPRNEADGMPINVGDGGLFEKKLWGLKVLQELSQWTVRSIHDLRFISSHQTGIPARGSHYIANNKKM

binding result [1]: binds
binding result (mouse CLCF1 (mCLCF1)): binds
binding result [2]: no binding
B1: eCNTFR-Fc (soluble engineered CNTFR fused to mouse IgG2a Fc) (Fc fusion)
chain: QRHSPQEAPHVQYERLGSDVTLPCGTANWDAAVTWRVNGTDLAPDLLNGSQLVLHGLELGHSGLYACFHRDSWHLRHQVLLHVGLPPQEPVLSCRSNTYPKGFYCSWHLPTPTYIPNTFNVTVLHGSKIMVCEKDPALKNRCHIRYMHLFSPIKHNVSISVSNALGHNATAITFDEFTIVKPDPPENVVARPVPSNPRRLEVTWQTPSTWPDPEFFPLKFFLRYRPLILDQWQHVELSDGTAHTIAAAYAGKEYIIQVAAKDNEFGTWSDWSVAAHATPWTEEPRHLTTEAQAAETTTSTTSSLAPPPTTKICDPGELGSRRLEPRGPTIKPCPPCKCPAPNLLGGPSVFIFPPKIKDVLMISLSPIVTCVVVDVSEDDPDVQISWFVNNVEVHTAQTQTHREDYNSTLRVVSALPIQHQDWMSGKEFKCKVNNKDLPAPIERTISKPKGSVRAPQVYVLPPPEEEMTKKQVTLTCMVTDFMPEDIYVEWTNNGKTELNYKNTEPVLDSDGSYFMYSKLRVEKKNWVERNSYSCSVVHEGLHNHHTTKSFSRTPGK
notes: Made in HEK293; also called Fc fusion eCNTFR; engineered CLCF1 trap
